For seven molecules, binding result and Kd results are on record in PMC10716145, “ZNF524 directly interacts with telomeric DNA and supports telomere integrity”.

The target of series [1] is T1, ZNF524 ZF1-4 minimal domain (human, UniProt Q96C55 110-223).
T1 sequence: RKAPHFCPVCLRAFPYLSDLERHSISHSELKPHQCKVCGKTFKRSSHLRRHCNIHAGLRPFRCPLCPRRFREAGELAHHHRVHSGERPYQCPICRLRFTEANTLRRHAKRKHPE
Put plainly: ITC; ITC: 20 mM Tris-HCl pH 7.5, 150 mM NaCl, 20 C; pull-down: 50 mM Tris-HCl pH 7.5, 150 mM NaCl, 0.5% IGEPAL, 5 mM MgCl2, 1 mM DTT, salmon sperm DNA, 4 C. Conditions: protein: recombinant; tags: none (GST removed by TEV); blunt. A general note: ITC needs no label: the signal is the heat of the interaction.

Series [2] concerns the target T2, ZNF524 ZF2-4 (ZF1 removed) (human, UniProt Q96C55 138-223).
T2 sequence: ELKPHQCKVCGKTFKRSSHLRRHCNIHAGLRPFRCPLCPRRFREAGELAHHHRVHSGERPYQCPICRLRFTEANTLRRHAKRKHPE
Described as above. The conditions noted are these: protein: recombinant; tags: none (GST removed by TEV); blunt.

A further series addresses T3, ZNF524 ZF1-4 R131A (human, UniProt Q96C55 110-223, R131A).
T3 sequence: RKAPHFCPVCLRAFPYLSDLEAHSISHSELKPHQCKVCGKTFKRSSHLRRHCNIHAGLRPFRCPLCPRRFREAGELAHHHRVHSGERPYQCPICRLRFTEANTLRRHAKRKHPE
The description is as above. Conditions: protein: recombinant; tags: none (GST removed by TEV); blunt.

The target in another series is T4, ZNF524 ZF3-4 (human, UniProt Q96C55 166-223).
T4 sequence: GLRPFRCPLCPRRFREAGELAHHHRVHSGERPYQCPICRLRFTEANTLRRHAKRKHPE
Described as above. The conditions noted are these: protein: recombinant; tags: none (GST removed by TEV); blunt.

For the next series, the target named is T5, ZNF524 ZF1-4 S155A (human, UniProt Q96C55 110-223, S155A).
T5 sequence: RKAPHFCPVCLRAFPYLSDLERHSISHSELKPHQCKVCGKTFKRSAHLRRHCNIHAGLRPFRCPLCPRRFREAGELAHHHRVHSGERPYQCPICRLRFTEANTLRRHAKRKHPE
The description is as above. Conditions: protein: recombinant; tags: none (GST removed by TEV); blunt.

The next series concerns the target T6, ZNF524 ZF1-4 R159A (human, UniProt Q96C55 110-223, R159A).
T6 sequence: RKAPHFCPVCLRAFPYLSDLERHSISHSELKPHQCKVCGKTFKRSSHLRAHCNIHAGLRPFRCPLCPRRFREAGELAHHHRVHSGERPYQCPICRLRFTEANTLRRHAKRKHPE
Described as above. Conditions: protein: recombinant; tags: none (GST removed by TEV); blunt.

A further series addresses T7, ZNF524 ZF2M (human, UniProt Q96C55 110-223, R153A;S155A;H156A;R159A).
T7 sequence: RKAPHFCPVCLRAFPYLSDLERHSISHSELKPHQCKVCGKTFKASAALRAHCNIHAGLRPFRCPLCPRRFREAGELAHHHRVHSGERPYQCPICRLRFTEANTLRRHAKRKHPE
The series is described as above. Conditions: protein: recombinant; tags: none (GST removed by TEV); blunt.

In the next series the target is T8, ZNF524 ZF1-4 R215A (human, UniProt Q96C55 110-223, R215A).
T8 sequence: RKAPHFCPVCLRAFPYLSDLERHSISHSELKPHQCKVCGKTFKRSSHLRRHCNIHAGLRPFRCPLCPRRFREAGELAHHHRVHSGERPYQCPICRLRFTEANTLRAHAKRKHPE
Described as above. The conditions noted are these: protein: recombinant; tags: none (GST removed by TEV); blunt.

In the next series the target is T9, ZNF524 ZF1-4 R180A (human, UniProt Q96C55 110-223, R180A).
T9 sequence: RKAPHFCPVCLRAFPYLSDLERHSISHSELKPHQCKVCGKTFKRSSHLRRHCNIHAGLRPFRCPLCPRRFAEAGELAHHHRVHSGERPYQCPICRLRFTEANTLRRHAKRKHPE
The series is described as above. The conditions noted are these: protein: recombinant; tags: none (GST removed by TEV); blunt.

Series [3] deals with T10, ZNF524 ZF1-3 (ZF4 removed) (human, UniProt Q96C55 110-196).
T10 sequence: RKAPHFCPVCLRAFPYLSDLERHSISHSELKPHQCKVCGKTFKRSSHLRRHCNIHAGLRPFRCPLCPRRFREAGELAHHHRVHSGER
The series is described as above. The conditions noted are these: protein: recombinant; tags: none (GST removed by TEV); blunt.

In another series the target is T11, ZNF524 ZF1-4 R153A (human, UniProt Q96C55 110-223, R153A).
T11 sequence: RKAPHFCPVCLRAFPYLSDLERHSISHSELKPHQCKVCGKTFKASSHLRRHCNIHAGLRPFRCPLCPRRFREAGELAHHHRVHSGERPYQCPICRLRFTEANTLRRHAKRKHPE
The description is as above. Conditions: protein: recombinant; tags: none (GST removed by TEV); blunt.

The target of a further series is T12, ZNF524 ZF1-4 N211G (human, UniProt Q96C55 110-223, N211G).
T12 sequence: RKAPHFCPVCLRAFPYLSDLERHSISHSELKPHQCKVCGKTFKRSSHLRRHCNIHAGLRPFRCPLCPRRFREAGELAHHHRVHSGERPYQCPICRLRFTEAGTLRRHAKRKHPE
The series is described as above. The conditions noted are these: protein: recombinant; tags: none (GST removed by TEV); blunt.

A further series concerns the target T13, ZNF524 ZF1-4 H156A (human, UniProt Q96C55 110-223, H156A).
T13 sequence: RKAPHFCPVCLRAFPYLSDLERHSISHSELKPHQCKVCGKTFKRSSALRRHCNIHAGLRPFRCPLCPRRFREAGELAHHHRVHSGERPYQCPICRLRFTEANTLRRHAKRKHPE
The description is as above. The conditions noted are these: protein: recombinant; tags: none (GST removed by TEV); blunt.

The next series deals with T14, ZNF524 ZF2-3 (human, UniProt Q96C55 138-196).
T14 sequence: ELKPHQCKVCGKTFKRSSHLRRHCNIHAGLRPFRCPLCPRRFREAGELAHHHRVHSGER
The description is as above. The conditions noted are these: protein: recombinant; tags: none (GST removed by TEV); blunt.

For another series, the target named is T15, ZNF524 ZF1-4 E181A (human, UniProt Q96C55 110-223, E181A).
T15 sequence: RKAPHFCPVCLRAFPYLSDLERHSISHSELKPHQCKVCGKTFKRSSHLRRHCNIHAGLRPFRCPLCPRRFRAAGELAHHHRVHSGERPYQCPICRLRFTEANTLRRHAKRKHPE
Described as above. The conditions noted are these: protein: recombinant; tags: none (GST removed by TEV); blunt.

The target in the next series is T16, ZNF524 ZF1-4 E184A (human, UniProt Q96C55 110-223, E184A).
T16 sequence: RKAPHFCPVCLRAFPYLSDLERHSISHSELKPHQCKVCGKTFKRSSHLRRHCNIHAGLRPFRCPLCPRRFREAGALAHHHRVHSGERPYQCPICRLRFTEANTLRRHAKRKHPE
The description is as above. Conditions: protein: recombinant; tags: none (GST removed by TEV); blunt.

The target in series [4] is T1, ZNF524 ZF1-4 minimal domain. Put plainly: ITC; annealed in 100 mM NaCl; ITC: 20 mM Tris-HCl pH 7.5, 150 mM NaCl, 20 C; pull-down: 50 mM Tris-HCl pH 7.5, 150 mM NaCl, 0.5% IGEPAL, 5 mM MgCl2, 1 mM DTT, salmon sperm DNA, 4 C. The conditions noted are these: protein: recombinant, tags: none (GST removed by TEV), single strand.
For the next series, the target named is T17, ZNF524 ZF1-4 (crystal) (human, UniProt Q96C55 107-237).
T17 sequence: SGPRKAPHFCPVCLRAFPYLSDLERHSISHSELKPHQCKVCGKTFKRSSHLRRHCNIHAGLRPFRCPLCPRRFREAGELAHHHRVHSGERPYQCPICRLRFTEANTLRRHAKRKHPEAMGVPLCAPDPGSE
Put plainly: crystal structure 2.40 A; Zn2+; ITC: 20 mM Tris-HCl pH 7.5, 150 mM NaCl, 20 C; pull-down: 50 mM Tris-HCl pH 7.5, 150 mM NaCl, 0.5% IGEPAL, 5 mM MgCl2, 1 mM DTT, salmon sperm DNA, 4 C. The conditions noted are these: protein: recombinant; tags: none (GST removed by TEV); 5' overhang 1 nt at each end (A and T).

B1: GTGAGT duplex (dsDNA)
DNA 1: GTGTGAGTGTGA
DNA 2: TCACACTCACAC
In the case of B1, the binding result in [1] is “no binding”.

B2: TTAGGG 12-bp duplex (dsDNA)
DNA 1: GGTTAGGGTTAG
DNA 2: CTAACCCTAACC
Broadly, the Kd is a measure of binding affinity in units of concentration. Regarding B2, the Kd was determined as 620 ± 100 nM in [2]; 340 ± 50 nM with ZNF524 ZF1-4 R131A; 250 ± 30 nM with ZNF524 ZF1-4 S155A; 100 ± 90 nM in the series with ZNF524 ZF1-4 R159A; 220 ± 60 nM in the series with ZNF524 ZF1-4 R215A; 410 ± 80 nM in the series with ZNF524 ZF1-4 R180A. For the same molecule, the dissociation constant (Kd) was 590 ± 150 nM in [3]; 150 ± 40 nM with ZNF524 ZF1-4 R153A; 170 ± 30 nM in the series with ZNF524 ZF1-4 N211G; 60 ± 40 nM with ZNF524 ZF1-4 H156A; 1210 ± 790 nM with ZNF524 ZF2-3; 420 ± 90 nM with ZNF524 ZF1-4 E181A. For the same molecule, the values for the Kd (with ZNF524 ZF1-4 E184A; in series [1]) were 230 ± 130 nM and 90 ± 20 nM, respectively. Further, the binding result in the series with ZNF524 ZF3-4 and with ZNF524 ZF2M was “no binding” each time.
In the case of TTAGGGTTAGGGTTAGGGTTAGGG (ssDNA) [(TTAGGG)4-ssDNA], the binding result in [4] was “no binding”.

B3: TTGGGG duplex (dsDNA)
DNA 1: GGTTGGGGTTGG
DNA 2: CCAACCCCAACC
For the molecule B3, the Kd in series [1] was 330 ± 130 nM.

B4: TCAGGG duplex (dsDNA)
DNA 1: GGTCAGGGTCAG
DNA 2: CTGACCCTGACC
Turning to B4, the Kd in series [1] is 280 ± 40 nM.

B5: telomeric crystal duplex (dsDNA)
DNA 1: AGGGTTAGGGTTAGG
DNA 2: TCCTAACCCTAACCC
Consider B5, for which the binding result in the series with ZNF524 ZF1-4 (crystal) is recorded as “binds”.

B6: TGAGGG duplex (dsDNA)
DNA 1: GGTGAGGGTGAG
DNA 2: CTCACCCTCACC
Take B6: in [1], the Kd is 270 ± 110 nM.
